According to publication PMC3783447, “Tropine Forming Tropinone Reductase Gene from Withania somnifera (Ashwagandha): Biochemical Characteristics of the Recombinant Enzyme and Novel Physiological Overtones of Tissue-Wide Gene Expression Patterns” (PLoS ONE, 2013):

Columns and labels:
WsTR-I [1] = target: T1, WsTR-I (Withania somnifera, UniProt U5PUZ1); test: spectrophotometric A340, NADPH oxidation; assay type: biochemical; conditions: forward reaction, MES-NaOH pH 6.7, 30°C, kcat per monomer, unit inferred from kcat/Km
T1 construct: His6-tagged (pET28a NdeI/BamHI), E. coli BL21 (DE3); Ni-NTA and gel filtration; homodimer about 60 kDa
Text: (§1) spectrophotometric A340, NADPH oxidation on WsTR-I

WsTR-I [2] = target: T1, WsTR-I; test: spectrophotometric A340, NADP+ reduction; assay type: biochemical; conditions: reverse reaction; tropine; 30°C; printed kcat 0.54 (no unit) disagrees with printed kcat/Km
Text: spectrophotometric A340, NADP+ reduction on WsTR-I

[3] = target: Withania somnifera tropine forming tropinone reductase (WsTR-I), recombinant His6-WsTR-I (Withania somnifera); test: SEC; calibrated Sephadex G-150 column (70.0 cm x 0.6 cm), 0.1 M MES-NaOH pH 6.7 with 0.1 M NaCl, 5 ml/h; markers ovalbumin, BSA, alcohol dehydrogenase; elution followed by catalytic activity; native mass about 60 kDa compared with the 29.41 kDa subunit
[4] = tested on: CN1[C@@H]2CC[C@H]1CC(=O)C2; test: spectrophotometric A340, NADPH oxidation; assay type: biochemical, Withania somnifera; conditions: forward reaction, MES-NaOH pH 6.7, 30°C, kcat per monomer, unit inferred from kcat/Km
Text: as §1

## CC1CCCC(=O)C1 (stereo not shown) [3-methyl-cyclohexanone]
WsTR-I [1]; NADPH
  Km: 2.11 mM

## NC(=O)C1=CN([C@@H]2O[C@H](COP(=O)(O)OP(=O)(O)OC[C@H]3O[C@@H](n4cnc5c(N)ncnc54)[C@H](OP(=O)(O)O)[C@@H]3O)[C@@H](O)[C@H]2O)C=CC1 [NADPH]
WsTR-I [1]; tropinone
  Km: 0.00043 mM

## NC(=O)c1ccc[n+]([C@@H]2O[C@H](COP(=O)(O)OP(=O)(O)OC[C@H]3O[C@@H](n4cnc5c(N)ncnc54)[C@H](OP(=O)(O)O)[C@@H]3O)[C@@H](O)[C@H]2O)c1 [NADP^+]
WsTR-I [2]
  Km: 96.2 µM

## Withania somnifera tropine forming tropinone reductase (WsTR-I), recombinant His6-WsTR-I (enzyme)
[3]
  stoichiometry N: 2

## WsTR-I (Withania somnifera)
[4]
  Km: 1.27 mM
  kcat: 9.51 s⁻¹
  kcat/Km: 7490 M⁻¹ s⁻¹
